Data from patent US20120058906A1 (published 2012).

T1: rHuman Erythropoietin R/Fc Chimera, CF (R&D Systems Cat#963-ER) (human, UniProt P19235 25-250)
T1 construct: Bought Fc chimera; also called EPO R/Fc; EPOR; Fc part of the bought chimera not given
T1 sequence: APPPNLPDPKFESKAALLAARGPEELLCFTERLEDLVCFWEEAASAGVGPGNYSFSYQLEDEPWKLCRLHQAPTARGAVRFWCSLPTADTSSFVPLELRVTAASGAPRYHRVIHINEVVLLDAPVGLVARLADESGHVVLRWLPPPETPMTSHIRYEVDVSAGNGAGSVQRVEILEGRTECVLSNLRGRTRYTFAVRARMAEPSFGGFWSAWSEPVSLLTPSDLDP

T2: rHuman Erythropoietin R/Fc Chimera, CF (R&D Systems Cat#963-ER) (human, UniProt P19235 25-250)
T2 construct: Bought reagent; also called EPO R/Fc; Epo R; Fc part of the bought chimera not given
T2 sequence: T1 sequence

B1: Fab VH1-46_IGHD6-6*01_IGHJ1*01 & L6_IGKJ1*01 (Fab, V domains shown)
VH: QVQLVQSGAEVKKPGASVKVSCKASGYTFTSYYMHWVRQAPGQGLEWMGIINPSGGSTSYAQKFQGRVTMTRDTSTSTVYMELSSLRSEDTAVYYCAREEYSSSSAEYFQHWGQGTLVTVSS
VL: not shown
notes: Expressed in E. coli as Fab: heavy chain with CH1 plus Flag and His tags from Plasmid A, kappa light chain constant region from Plasmid C; also called Fab No. 1
B2: Fab VH1-46_IGHD3-10*01_IGHJ4*01 & B3_IGKJ1*01 (Fab, V domains shown)
VH: QVQLVQSGAEVKKPGASVKVSCKASGYTFTSYYMHWVRQAPGQGLEWMGIINPSGGSTSYAQKFQGRVTMTRDTSTSTVYMELSSLRSEDTAVYYCAREYYYGSGSYYNDYFDYWGQGTLVTVSS
VL: not shown
notes: also called IGHV1-46*01

How the values were obtained:
[1] = target: T3, rHuman Notch-1/Fc Chimera, CF (R&D Systems Cat#3647-TK) (human, UniProt P46531 19-526); test: MSD ECL titration, Fab 0.1 nM, blank 201
T3 construct: Bought Fc chimera; Fc part of the bought chimera not given

[2] = target: T4, rHuman CD44/Fc Chimera, CF (R&D Systems Cat#3660-CD) (human, UniProt P16070 21-220); test: MSD ECL titration, Fab 0.1 nM, blank 201
T4 construct: Bought Fc chimera; Fc part of the bought chimera not given

[3] = target: T5, rHuman IGF-1 sR (insulin-like growth factor-1 soluble receptor), CF (R&D Systems Cat#391-GR) (human, UniProt P08069 31-932); test: MSD ECL titration, Fab 0.1 nM, blank 201
T5 construct: Bought soluble receptor; also called IGF-R1

[4] = target: T6, rHuman P-Cadherin/Fc Chimera, CF (R&D Systems Cat#861-PC) (human, UniProt P22223 108-654); test: MSD ECL titration, Fab 0.1 nM, blank 201
T6 construct: Bought Fc chimera; Fc part of the bought chimera not given

[5] = target: T1, rHuman Erythropoietin R/Fc Chimera, CF …; test: MSD ECL titration, Fab 0.1 nM, blank 201
[6] = target: T7, Recombinant Human DLL4 (R&D Systems Cat#1506-D4/CF) (human, UniProt Q9NR61 27-524); test: MSD ECL titration, Fab 0.1 nM, blank 201
T7 construct: Bought recombinant protein; also called rHuman DLL4; delta-like protein 4

[7] = target: T8, rHuman ErbB2/Fc Chimera, CF (R&D Systems Cat#1129-ER) (human, UniProt P04626 23-652); test: MSD ECL titration, Fab 0.1 nM, blank 201
T8 construct: Bought Fc chimera; also called HER2/neu; Fc part of the bought chimera not given

[8] = target: T9, rHuman EGF R/Fc Chimera, CF (R&D Systems Cat#344-ER) (human, UniProt P00533 25-645); test: MSD ECL titration, Fab 0.1 nM, blank 201
T9 construct: Bought Fc chimera; Fc part of the bought chimera not given

[9] = target: T10, rHuman HGF R/c-MET/Fc Chimera, CF (R&D Systems Cat#358-MT/CF) (human, UniProt P08581 25-932); test: MSD ECL titration, Fab 0.1 nM, blank 201
T10 construct: Bought Fc chimera; also called HGF R/Fc; Fc part of the bought chimera not given

[10] = target: T3, rHuman Notch-1/Fc Chimera, CF (R&D …); test: MSD ECL titration, Fab 2383 nM, blank 344
[11] = target: T4, rHuman CD44/Fc Chimera, CF (R&D Systems …); test: MSD ECL titration, Fab 2383 nM, blank 344
[12] = target: T1, rHuman Erythropoietin R/Fc Chimera, CF …; test: MSD ECL titration, Fab 2383 nM, blank 344
[13] = target: T7, Recombinant Human DLL4 (R&D Systems …); test: MSD ECL titration, Fab 2383 nM, blank 344
[14] = target: T9, rHuman EGF R/Fc Chimera, CF (R&D …); test: MSD ECL titration, Fab 2383 nM, blank 344
[15] = target: T10, rHuman HGF R/c-MET/Fc Chimera, CF (R&D …); test: MSD ECL titration, Fab 2383 nM, blank 344
[16] = target: T2, rHuman Erythropoietin R/Fc Chimera, CF …; test: ECL (MSD multi-spot), antigen spotted on plate; Fab 1410 nM; blank spot 709
[17] = target: T11, Recombinant Human DLL4 (R&D Systems Cat#1506-D4/CF) (human, UniProt Q9NR61 27-524); test: as above
T11 construct: Bought reagent; also called delta-like protein 4

[18] = target: T12, rHuman ErbB2/Fc Chimera, CF (R&D Systems Cat#1129-ER) (human, UniProt P04626 23-652); test: as above
T12 construct: Bought reagent; also called HER2/neu; human epidermal growth factor 2 receptor; Fc part of the bought chimera not given

[19] = target: T13, rHuman EGF R/Fc Chimera, CF (R&D Systems Cat#344-ER) (human, UniProt P00533 25-645); test: as above
T13 construct: Bought reagent; also called epidermal growth factor receptor; Fc part of the bought chimera not given

[20] = target: T14, rHuman HGF R/c-MET/Fc Chimera, CF (R&D Systems Cat#358-MT/CF) (human, UniProt P08581 25-932); test: as above
T14 construct: Bought reagent; also called HGF R/Fc; hepatocyte growth factor receptor; Fc part of the bought chimera not given
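Further: blank spot per well as comparator with Hit at signal to blank ratio of 4 or more.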

| Binder | ECL signal [1] | ECL signal [2] | ECL signal [3] | ECL signal [4] | ECL signal [5] | ECL signal [6] | ECL signal [7] | ECL signal [8] | ECL signal [9] | ECL signal [10] | ECL signal [11] | ECL signal [12] | ECL signal [13] | ECL signal [14] | ECL signal [15] | ECL signal [16] | ECL signal [17] | ECL signal [18] | ECL signal [19] | ECL signal [20] |
| --- | --- | --- | --- | --- | --- | --- | --- | --- | --- | --- | --- | --- | --- | --- | --- | --- | --- | --- | --- | --- |
| B1 | 378 | 323 | 241 | 235 | 373 | 317 | 306 | 311 | 286 | 690 | 559 | 658 | 11800 | 621 | 762 |  |  |  |  |  |
| B2 |  |  |  |  |  |  |  |  |  |  |  |  |  |  |  | 4310 | 1260 | 932 | 1070 | 903 |
